Assay results reported in patent US20150093383A1 (ONO PHARMACEUTICAL, published 2015).
Square brackets hold non-standard residues; d marks the D form. Ends that are not written are not given here. * marks the point of attachment. Biotin = O=C1N[C@H]2[C@H](CS[C@H]2CCCCC(=O)*)N1; pY = N[C@@H](Cc1ccc(OP(=O)(O)O)cc1)C(=O)O

What was measured:
[1] = target: T1, SHP-2 (mouse (endogenous in mouse B cell …, UniProt P35235 2-593)); assay: co-immunoprecipitation with 2.4G2 from stimulated A20IIA1.6 cells, Western blotting
T1 construct: Detected by Western blotting with a Santacruz primary antibody; also called phosphatase
T1 sequence (looked up): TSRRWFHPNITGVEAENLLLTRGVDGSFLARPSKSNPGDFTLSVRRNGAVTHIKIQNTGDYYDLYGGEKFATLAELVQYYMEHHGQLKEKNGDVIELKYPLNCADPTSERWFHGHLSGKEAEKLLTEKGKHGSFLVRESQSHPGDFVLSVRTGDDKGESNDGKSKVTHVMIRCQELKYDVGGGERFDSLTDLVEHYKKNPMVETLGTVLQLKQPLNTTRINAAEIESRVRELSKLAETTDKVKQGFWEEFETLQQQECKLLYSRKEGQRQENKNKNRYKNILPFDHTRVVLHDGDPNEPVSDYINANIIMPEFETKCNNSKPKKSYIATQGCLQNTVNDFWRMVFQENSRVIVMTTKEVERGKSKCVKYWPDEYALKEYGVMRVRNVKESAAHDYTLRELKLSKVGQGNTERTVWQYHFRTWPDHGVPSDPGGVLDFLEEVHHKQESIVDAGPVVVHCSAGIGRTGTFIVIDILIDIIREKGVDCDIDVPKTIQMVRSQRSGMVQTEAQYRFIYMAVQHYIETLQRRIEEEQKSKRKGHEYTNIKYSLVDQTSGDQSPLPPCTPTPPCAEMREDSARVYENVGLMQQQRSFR
Experimental: (§1) Examination was carried out on whether or not intracellular tyrosine residue is phosphorylated and a phosphatase is recruited when BIR1 is activated. With 30 μg/mL of F(ab′)₂ of rabbit anti-mouse IgG (H+L) antibody or 45 μg/mL of intact antibody thereof (manufactured by Zymed), 3×10⁷ cells of the FcR chimeric protein-stably expressing cell suspended in Ca²⁺-containing HEPES/Hanks' buffer were stimulated at 37° C. for 3 minutes. Thereafter, the cells were lysed with a lysis buffer (1% NP-40, 50 mmol/L Tris-HCl, pH 8.0, 150 mmol/L NaCl, 50 mmol/L NaF, 10% glycerol, 1 mmol/L Na₃VO₄, […], proteinnase inhibitor cocktail tablet (manufactured by Roche Diagnostics)). The cell lysate was allowed to react with Protein A/G PLUS-Agarose (manufactured by Santacruz) to which a rat anti-mouse CD16/CD32 antibody (2.4G2) (manufactured by BD Pharmingen) is bound, at 4° C. for 5 hours or more. The FcR chimeric protein and binding molecules thereof are immuno-precipitated and then Western blotting was carried out in the usual way. The membrane was allowed to react with phosphotyrosine (4G10) (manufactured by Upstate) and primary antibodies for SHP-1, SHP-2 and SHIP-1 (manufactured by Santacruz), followed by the reaction with a horse radish peroxidase (HRP)-labeled secondary antibody (manufactured by Santacruz) to detect the bands by an ECL detection system (manufactured by Amersham Biosciences).

[2] = target: T2, SHP-1 (mouse (endogenous in mouse B cell …, UniProt P29351 1-595)); assay: as above
T2 construct: Detected by Western blotting with a Santacruz primary antibody; also called phosphatase
T2 sequence (P29351 whole entry): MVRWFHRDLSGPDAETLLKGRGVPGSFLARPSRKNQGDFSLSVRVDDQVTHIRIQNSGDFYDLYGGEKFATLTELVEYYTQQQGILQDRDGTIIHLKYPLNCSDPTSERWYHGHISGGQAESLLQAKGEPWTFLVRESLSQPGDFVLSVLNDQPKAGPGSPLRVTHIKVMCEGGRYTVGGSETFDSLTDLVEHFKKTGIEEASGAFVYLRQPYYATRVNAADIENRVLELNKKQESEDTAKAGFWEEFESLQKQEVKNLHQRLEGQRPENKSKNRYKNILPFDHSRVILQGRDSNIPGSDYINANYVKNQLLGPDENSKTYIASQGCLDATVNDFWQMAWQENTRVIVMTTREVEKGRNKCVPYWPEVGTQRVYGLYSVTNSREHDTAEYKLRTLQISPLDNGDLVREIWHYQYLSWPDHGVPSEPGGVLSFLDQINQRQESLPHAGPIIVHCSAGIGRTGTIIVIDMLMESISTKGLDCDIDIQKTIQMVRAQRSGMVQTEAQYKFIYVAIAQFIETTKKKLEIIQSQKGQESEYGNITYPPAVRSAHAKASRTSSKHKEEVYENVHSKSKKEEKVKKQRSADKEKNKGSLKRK
Experimental: as §1

[3] = target: T3, SHIP-1 (mouse (endogenous in mouse B cell …, UniProt Q9ES52 1-1191, limits assumed)); assay: as above
T3 construct: Detected by Western blotting with a Santacruz primary antibody; also called phosphatase
T3 sequence (looked up): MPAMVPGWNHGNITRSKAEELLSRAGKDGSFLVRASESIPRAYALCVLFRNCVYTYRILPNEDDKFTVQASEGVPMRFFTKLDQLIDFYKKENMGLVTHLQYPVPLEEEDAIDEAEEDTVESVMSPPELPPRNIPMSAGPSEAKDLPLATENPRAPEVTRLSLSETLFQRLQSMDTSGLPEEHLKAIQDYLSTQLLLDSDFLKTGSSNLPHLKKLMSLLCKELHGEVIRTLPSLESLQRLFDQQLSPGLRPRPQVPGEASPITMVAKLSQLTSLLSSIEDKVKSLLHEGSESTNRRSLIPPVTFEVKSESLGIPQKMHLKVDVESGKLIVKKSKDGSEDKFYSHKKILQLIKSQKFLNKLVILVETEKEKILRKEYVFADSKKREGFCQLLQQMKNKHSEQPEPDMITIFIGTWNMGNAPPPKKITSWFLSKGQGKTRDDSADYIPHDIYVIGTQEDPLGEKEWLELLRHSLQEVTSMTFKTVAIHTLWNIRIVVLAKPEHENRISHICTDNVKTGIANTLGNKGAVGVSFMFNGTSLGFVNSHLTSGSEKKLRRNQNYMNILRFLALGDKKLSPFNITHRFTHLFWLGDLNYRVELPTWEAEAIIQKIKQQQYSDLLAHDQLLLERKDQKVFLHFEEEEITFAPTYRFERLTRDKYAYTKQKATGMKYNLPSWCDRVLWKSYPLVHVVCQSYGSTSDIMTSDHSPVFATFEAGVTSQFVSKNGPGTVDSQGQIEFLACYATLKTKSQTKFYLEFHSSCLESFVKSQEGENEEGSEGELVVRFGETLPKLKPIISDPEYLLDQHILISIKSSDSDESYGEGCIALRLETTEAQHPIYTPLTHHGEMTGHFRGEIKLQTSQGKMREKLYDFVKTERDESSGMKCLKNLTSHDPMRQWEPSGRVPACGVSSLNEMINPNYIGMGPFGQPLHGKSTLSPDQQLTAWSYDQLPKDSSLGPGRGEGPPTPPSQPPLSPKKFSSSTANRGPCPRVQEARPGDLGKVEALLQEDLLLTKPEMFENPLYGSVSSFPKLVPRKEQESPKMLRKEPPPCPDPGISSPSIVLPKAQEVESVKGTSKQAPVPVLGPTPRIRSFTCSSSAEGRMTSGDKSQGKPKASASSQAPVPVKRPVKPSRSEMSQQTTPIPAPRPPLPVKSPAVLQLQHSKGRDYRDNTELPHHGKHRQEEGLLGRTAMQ
Experimental: as §1

[4] = target: T1, SHP-2; assay: pull-down of A20IIA1.6 lysate with biotinylated phosphopeptide, Western blotting
Description: (§2) The ITIM domain which is a sequence important for BIR1 in transmitting inhibitory signal and the binding phosphatase were identified. Peptides (Y3: Biotin-HSQELQ³¹³YATPVF (SEQ ID NO:23), Y5: Biotin-DSYKSG³³⁶YVYSEL (SEQ ID NO:24), Y6: Biotin-YKSGYV³³⁸YSELNF (SEQ ID NO:25)) containing intracellular tyrosine of BIR1 (SEQ ID NO:1) and their corresponding phosphorylated peptides (pY3: Biotin-HSQELQ³¹³(pY)ATPVF (SEQ ID NO:26), pY5: Biotin-DSYKSG³³⁶(pY)VYSEL (SEQ ID NO:27), pY6: Biotin-YKSGYV³³⁸(pY)SELNF (SEQ ID NO:28)) were synthesized (consigned to Sigma Genosys). A peptide containing the ITIM sequence of mouse PIR-B and its phosphorylated peptide (Y3: Biotin-ESQDVT⁷⁹⁴YAQLCS (SEQ ID NO:29) and pY3: Biotin-ESQDVT⁷⁹⁴(pY)AQLCS (SEQ ID NO:30)) were synthesized as positive controls. These peptides were connected to Protein A/G PLUS-Agarose (manufactured by Santacruz) via an anti-biotin antibody (manufactured by Sigma) and then allowed to react with a lysate of A20IIA1.6 cell at 4° C. for 2 hours. After immunoprecipitation, western blotting was carried out in the usual way. The membrane was allowed to react with primary antibodies for SHP-1, SHP-2 and SHIP-1 (manufactured by Santacruz), and then allowed to react with an (HRP)-labeled secondary antibody (manufactured by Santacruz), and the bands were detected using an ECL plus Western Blotting Detection System (manufactured by Amersham Biosciences).

[5] = target: T2, SHP-1; assay: as above
Description: as §2

[6] = target: T3, SHIP-1; assay: as above
Description: as §2

Measured: binding result

B1: FcR-hBIR1 (YWF) (receptor)
chain: THDLPKAVVKLEPPWIQVLKEDTVTLTCEGTHNPGNSSTQWFHNGRSIRSQVQASYTFKATVNDSGEYRCQMEQTRLSDPVDLGVISDWLLLQTPQLVFLEGETITLRCHSWRNKLLNRISFFHNEKSVRYHHYSSNFSIPKANHSHSGDYYCKGSLGRTLHQSKPVTITVQGPKSSRSLPVLTIVAAVTGIAVAAIVIILVSLVYLKKKQVPKFKTRKAMRNNVPRDRGDTAMEVGIFANILEKQAKEESVPEVGSRPCVSTAQDEAKHSQELQFATPVFQEVAPREQEACDSFKSGFVFSELNF
notes: Stably expressed in the mouse B cell strain A20IIA1.6; Immunoprecipitated from the cell lysate with 2.4G2; also called mutant in which intracellular tyrosine residue of BIR1 was replaced by phenylalanine residue
no binding: [1] | [2] | [3]

B2: pY5: Biotin-DSYKSG^336(pY)VYSEL (peptide)
peptide: Biotin-DSYKSG[pY]VYSEL
notes: Synthesised by Sigma Genosys
no binding: [4] | [5] | [6]
